# Measurements taken from US20240327503A1 (University of Texas, published 2024).
# Target: spike protein of SARS-COV-2 WA1 live virus (SARS-CoV-2, UniProt P0DTC2 14-1273)
# Experiment: cell-based or functional assay
binder,measurement,value
"A7V3 (antibody, V domains shown) VH: not shown VL: QSVVTQPPSVSAAPGQKVTISCSGSSSNIGNNYVSWYQQLPGTAPKLLIYDNNKRPSGIPDRFSGSKSGTSATLGITGLQTGDEADYYCGTWDSSLSAVVFGGGTKLTVL","IC50, live virus neutralization of SARS-CoV-2 WA1",0.95 nM
